# Test results as given in article PMC8653965, “Direct Electrochemical Generation of Catalytically Competent Oxyferryl Species of Classes I and P Dye Decolorizing Peroxidases” (International Journal of Molecular Sciences, 2021).
# Substrate: CCn1c(=NN=c2sc3cc(S(=O)(=O)O)ccc3n2CC)sc2cc(S(=O)(=O)O)ccc21
# Assay: purified protein
# Format: biochemical, Bacillus subtilis
# Conditions: no H2O2, applied potential −0.190 V, aerobic (O2), pH 7.6, 298 K, 20 mM TRIS-HCl, 200 mM KCl, 25.0 °C
protein,measurement,value
"BsDyP (Bacillus subtilis subsp. subtilis str. 168) (protein, signal (Tat) peptide deleted; plasmid pVB4; expressed in E. coli Tuner; purified) IGASGLGGLAPLVQTAAKPSKKDEKEEEQIVPFYGKHQAGITTAHQTYVYFAALDVTAKDKSDIITLFRNWTSLTQMLTSGKKMSAEQRNQYLPPQDTGESADLSPSNLTVTFGFGPGFFEKDGKDRFGLKSKKPKHLAALPAMPNDNLDEKQGGGDICIQVCADDEQVAFHALRNLLNQAVGTCEVRFVNKGFLSGGKNGETPRNLFGFKDGTGNQSTKDDTLMNSIVWIQSGEPDWMTGGTYMAFRKIKMFLEVWDRSSLKDQEDTFGRRKSSGAPFGQKKETDPVKLNQIPSNSHVSLAKSTGKQILRRAFSYTEGLDPKTGYMDAGLLFISFQKNPDNQFIPMLKALSAKDALNEYTQTIGSALYACPGGCKKGEYIAQRLLES",Km,1155 ± 100 µM
same,kcat,18 ± 1 s⁻¹
same,kcat/Km,16000 M⁻¹ s⁻¹
